Test results as given in US20240043478A1.

B1: PN-621 Variant, five sequences α10 and one sequence β10 (designed binder)
chain: ADNIFNEELQHAFYLILHLPNLTEEQRNAFIQSLRDDPSVVAEILAEARRLNDAQAPRADNIFNEELQHAFYLILHLPNLTEEQRNAFIQSLRDDPSVVAEILAEARRLNDAQAPRADNIFNEELQHAFYLILHLPNLTEEQRNAFIQSLRDDPSVVAEILAEARRLNDAQAPRADNIFNEELQHAFYLILHLPNLTEEQRNAFIQSLRDDPSVVAEILAEARRLNDAQAPRADNIFNEELQHAFYLILHLPNLTEEQRNAFIQSLRDDPSVVAEILAEARRLNDAQAPRADNIFNEELQHAFYLILHLPNLTEEQRNAFIQSLRDDPSKVKKILKEAKKLNKAQAPK
B2: PN-621 Variant, five sequences α8 and one sequence β8 (designed binder)
chain: ADNIFNREVQAAFYHILHLPNLTEEQRNAFIQSLRDDPSVVAEILAEARRLNDAQAPRADNIFNREVQAAFYHILHLPNLTEEQRNAFIQSLRDDPSVVAEILAEARRLNDAQAPRADNIFNREVQAAFYHILHLPNLTEEQRNAFIQSLRDDPSVVAEILAEARRLNDAQAPRADNIFNREVQAAFYHILHLPNLTEEQRNAFIQSLRDDPSVVAEILAEARRLNDAQAPRADNIFNREVQAAFYHILHLPNLTEEQRNAFIQSLRDDPSVVAEILAEARRLNDAQAPRADNIFNREVQAAFYHILHLPNLTEEQRNAFIQSLRDDPSKVKKILKEAKKLNKAQAPK

How the values were obtained:
[1] = molecular target: human polyclonal IgG (available from Japan Blood Products Organization) (human); experiment: immobilised on agarose gel; IgG eluted at pH 4.0 as % of pH 4.0 + pH 2.8 eluates
[2] = molecular target: human polyclonal IgG (available from Japan Blood Products Organization) (human); experiment: elution ratio at pH 4.0 relative to PN-621
[3] = molecular target: human polyclonal IgG (available from Japan Blood Products Organization) (human); experiment: dynamic binding, 3 mg/mL IgG, 10% breakthrough, 5 min retention

| Binder | Elution Ratio (%) under Weakly Acidic Conditions [1] | Elution Ratio, relative ratio with respect to PN-621 [2] | Binding Amount of IgG [3] |
| --- | --- | --- | --- |
| B1 | 82.9% | 1.79 | 69 mg/mL gel |
| B2 | 75.7% | 1.63 | 66 mg/mL gel |
